Here are results for six molecules from patent publication US20250136695A1 (PERSONGEN BIOTHERAPEUTICS SUZHOU, published 2025).

In assay [1] the target is T1, PDL1 expressed on recombinant CHO cells (CHO-K1/PDL1; aAPC CHO-PDL1) (UniProt Q9NZQ7 19-290, limits assumed). Briefly: cell-based or functional assay.
A further assay concerns the target T2, PDL1-His (UniProt Q9NZQ7 19-238, limits assumed).
T2 construct: not shown: His tag
Briefly: BLI (OCTET R2), Fc-tagged antibody on protein A probes, PDL1-His as mobile phase.

The target of assay [2] is T1, PDL1 expressed on recombinant CHO cells …. Briefly: cell-based or functional assay. The source holds these as a separate data set.
Assay [3] has the same target. Briefly: cell-based or functional assay. The source holds these as a separate data set.

Numbering of substitutions follows the chain as printed. Names and notes keep the numbering of the source.

T1 sequence (Q9NZQ7 19-290 limits assumed): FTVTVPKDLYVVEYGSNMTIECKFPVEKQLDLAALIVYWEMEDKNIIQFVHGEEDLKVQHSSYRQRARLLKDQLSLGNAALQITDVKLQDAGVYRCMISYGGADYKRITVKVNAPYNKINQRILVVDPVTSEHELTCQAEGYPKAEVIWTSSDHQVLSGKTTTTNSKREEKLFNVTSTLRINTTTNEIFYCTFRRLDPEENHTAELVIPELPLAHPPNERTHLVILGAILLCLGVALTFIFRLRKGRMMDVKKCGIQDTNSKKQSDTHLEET
T2 sequence (Q9NZQ7 19-238 limits assumed): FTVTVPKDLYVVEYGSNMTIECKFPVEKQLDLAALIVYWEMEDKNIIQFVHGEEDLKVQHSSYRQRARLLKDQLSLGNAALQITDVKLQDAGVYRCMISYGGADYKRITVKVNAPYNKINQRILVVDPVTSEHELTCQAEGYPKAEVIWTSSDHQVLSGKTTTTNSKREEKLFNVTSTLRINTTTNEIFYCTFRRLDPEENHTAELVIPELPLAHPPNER

B1: 17-A06-G4S-23-G3 (Fc fusion)
chain: MAQVKLEESGGGLVQAGGSLRLSCVASGRSFITYAVGWFRQAPGKEREFVASINWSGAMTYYTDSVNGRFAISRDNAKNTVYLQMNNLKLEDTAVYYCASTISAVTPTNGYQNWGQGTQVTVSSGGGGSMAAVQLVESGGGLVQAGGSLRLSCVASGRSFITYAVGWFRQAPGKEREFVASVNWSGAMTYYADAVNGRFTISRDNAKNTVYLQMNNLKLEDTAVYYCAATISAVTPTNGYQNWGQGTQVTVSS
notes: also called bivalent antibody 17-A06-G4S-23-G3; bivalent PDL1 antibody; not shown: Fc tag ('Fc-tagged')
As for B1, the “EC50 of the PD1/PDL1 Block Assay (luciferase fold of induction, Jurkat-PD-1-NFAT-Luc + aAPC CHO-PDL1)” value in assay [1] came to 2.06 µg/mL. Besides, in the assay with PDL1-His, the Kd was found to be 4.2 nM, the koff came to 0.000649 s⁻¹ and the on-rate (kon) was determined as 155000 M⁻¹ s⁻¹.

B2: 17-A06 (VHH fused to human IgG1 Fc) (Fc fusion, not shown: a dimerising Fc or GST)
chain: MAQVKLEESGGGLVQAGGSLRLSCVASGRSFITYAVGWFRQAPGKEREFVASINWSGAMTYYTDSVNGRFAISRDNAKNTVYLQMNNLKLEDTAVYYCASTISAVTPTNGYQNWGQGTQVTVSS
As to B2, the “EC50 of the PD1/PDL1 Block Assay (luciferase fold of induction, Jurkat-PD1-NFAT-Luc + aAPC CHO-PDL1); printed as 03-17-A06; the table gives no unit, the axis is in µg/mL” value in assay [2] worked out at 1.96 µg/mL. For the same molecule, the “EC50 of PD-1/PDL1 blocking against Nivolumab ([…] µg/mL), same reporter assay” value (“EC50 of PD-1/PDL1 blocking” below) in assay [3] was more than 0.322 µg/mL.

B3: 23-G3 (VHH fused to human IgG1 Fc) (Fc fusion, not shown: a dimerising Fc or GST)
chain: B2 chain with Q3A, K5Q, E7V, I53V, T63A, S65A, A71T, S100A
Take B3: the “EC50 of the PD1/PDL1 Block Assay (luciferase fold of induction, Jurkat-PD1-NFAT-Luc + aAPC CHO-PDL1); printed as 03-23-G3; the table gives no unit, the axis is in µg/mL” value in assay [2] stood at 3.45 µg/mL. The “EC50 of PD-1/PDL1 blocking” value in assay [3] is more than 0.322 µg/mL.

B4: 29-H9 (VHH fused to human IgG1 Fc) (Fc fusion, not shown: a dimerising Fc or GST)
chain: RLQLVESGGGLVQAGGSLRLSCAASGFTFSTYAMSWYRGVPEKERELVAFISSDGGGTTYRDSVKGRFTISRDNGKNTVYLQMNSLKPEDTGVYYCARGLAQIWGQGTQVTVSS
As to B4, the “EC50 of the PD1/PDL1 Block Assay (luciferase fold of induction, Jurkat-PD1-NFAT-Luc + aAPC CHO-PDL1); printed as 03-29-H9; the table gives no unit, the axis is in µg/mL” value in assay [2] was 1.44 µg/mL. Further, in assay [3], the “EC50 of PD-1/PDL1 blocking” value was more than 0.322 µg/mL.

B5: 17-A06-G4S-29-H9 (Fc fusion)
chain: MAQVKLEESGGGLVQAGGSLRLSCVASGRSFITYAVGWFRQAPGKEREFVASINWSGAMTYYTDSVNGRFAISRDNAKNTVYLQMNNLKLEDTAVYYCASTISAVTPTNGYQNWGQGTQVTVSSGGGGSRLQLVESGGGLVQAGGSLRLSCAASGFTFSTYAMSWYRGVPEKERELVAFISSDGGGTTYRDSVKGRFTISRDNGKNTVYLQMNSLKPEDTGVYYCARGLAQIWGQGTQVTVSS
notes: also called bivalent antibody 17-A06-G4S-29-H9; bivalent PDL1 antibody; not shown: Fc tag ('Fc-tagged')
On to B5, for which the “EC50 of the PD1/PDL1 Block Assay (luciferase fold of induction, Jurkat-PD-1-NFAT-Luc + aAPC CHO-PDL1)” value in assay [1] turned out to be 1.35 µg/mL. Further, in the assay with PDL1-His, binding was put at a Kd of 2.73 nM, the koff came to 0.00048 s⁻¹ and the on-rate constant (kon) was 176000 M⁻¹ s⁻¹.

B6: 23-G3-G4S-29-H9 (Fc fusion)
chain: B5 chain with Q3A, K5Q, E7V, I53V, T63A, S65A, A71T, S100A
notes: also called bivalent antibody 23-G3-G4S-29-H9; bivalent PDL1 antibody; not shown: Fc tag ('Fc-tagged')
As to B6, in the assay with PDL1-His, the Kd was determined as 1.92 nM, the koff was determined as 0.000455 s⁻¹ and the kon is 238000 M⁻¹ s⁻¹.

One may read the Kd as a measure of binding affinity in units of concentration. For orientation: koff means the first-order rate constant of dissociation. Low values mean a long-lived complex, high ones a short-lived complex. As usually defined, the kon is a measure of how fast the partners come together. High values mean faster complex formation, low ones slower complex formation.
